In patent US20220001039A1, “COMPOSITIONS AND METHODS FOR DETECTING ACE2 EXPRESSION PROFILES” (Washington University, priority 2020, published 2022):
Read-outs that look alike come from different tables or passages of the source.

Experiments:
[1] = Acute toxicity test / body weight monitoring in mice; type: in vivo
Protocol: The experiment was carried out in 10 mice at 4-weeks of age. […] The injection was repeated on day 0, day 4, day 11, day 18 and day 25, and the weight of the mice was recorded.

[2] = target: T1, ACE2 (Homo sapiens, UniProt Q9BYF1); details: in vivo
T1 sequence (Q9BYF1 18-805): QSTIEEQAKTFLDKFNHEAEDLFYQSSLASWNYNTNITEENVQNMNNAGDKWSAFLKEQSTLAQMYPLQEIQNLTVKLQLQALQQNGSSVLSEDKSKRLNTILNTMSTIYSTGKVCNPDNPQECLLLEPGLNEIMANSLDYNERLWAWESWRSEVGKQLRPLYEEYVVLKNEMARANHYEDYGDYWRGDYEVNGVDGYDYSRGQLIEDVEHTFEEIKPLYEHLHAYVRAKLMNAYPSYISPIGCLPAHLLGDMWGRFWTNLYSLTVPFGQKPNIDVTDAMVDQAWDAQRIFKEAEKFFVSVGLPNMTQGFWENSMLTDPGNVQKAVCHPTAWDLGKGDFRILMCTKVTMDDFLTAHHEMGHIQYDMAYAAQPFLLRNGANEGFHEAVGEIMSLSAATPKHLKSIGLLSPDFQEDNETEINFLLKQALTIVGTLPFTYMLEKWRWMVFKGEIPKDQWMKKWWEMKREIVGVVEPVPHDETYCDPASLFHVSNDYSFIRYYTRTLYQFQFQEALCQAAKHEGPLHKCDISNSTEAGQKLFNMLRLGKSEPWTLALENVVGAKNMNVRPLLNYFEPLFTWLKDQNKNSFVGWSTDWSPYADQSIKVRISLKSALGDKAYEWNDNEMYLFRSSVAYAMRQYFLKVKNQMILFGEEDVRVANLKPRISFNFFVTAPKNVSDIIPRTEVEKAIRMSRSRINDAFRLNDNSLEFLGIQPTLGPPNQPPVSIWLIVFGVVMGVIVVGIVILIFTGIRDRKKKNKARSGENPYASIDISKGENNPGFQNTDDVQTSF

[3] = target: T1, ACE2; details: in vivo; remark: listed apart in the source
[4] = clinical; details: human, in vivo, iv, total radioactivity, SUVmax
[5] = target: T1, ACE2; assay: 68Ga-HZ20 PET/CT in healthy volunteers (SUVmax)
[6] = type: physicochemical
Protocol: The solution was analyzed by radio-HPLC to assess the radiochemical purity. The HPLC was eluted with water-CH3CN system (Phase A: 0.1% TFA H2O; Phase B: 0.1% TFA CH3CN) using gradient elution (0-5 min 20% B; 5-10 min 20%-80% B; 10-12 min 80% B; 12-15 min 80%-20% B) at a flow rate of 1.0 mL/min. The radiolabeling yield was 59.9±3.9% (non-decay corrected, n=10) and the radiochemical purity was over 95%. […] At 1 h, 2 h, and 4 h time points, 10 μL aliquot was analyzed by radio-HPLC to assess the radiochemical purity.

[7] = test system: HEK293-hACE2 xenografts; design: species or system mice; details: mouse, in vivo
Protocol: Tumors were monitored and imaging commenced after reaching >200 mm3. […] PET images were reconstructed by an iterative three-dimensional maximum a priori algorithm. […] At 1, 4, and 20 h post-injection, the animals were sacrificed for tissue dissection. The organs of interest were collected, rinsed, blotted, weighed, and counted with a γ-counter (Perkin Elmer Wizard2). The total injected radioactivity per animal was determined from the measured radioactivity in an aliquot of the injectate. Data were expressed as a percent of injected activity per gram of tissue (% IA/g).

[8] = target: T1, ACE2; design: from tissue; host or cells: organs of hACE2 transgenic mice, imaged in vivo by PET; species or system mice; details: mouse, in vivo
Description: PET images were reconstructed by an iterative three-dimensional maximum a priori algorithm.

[9] = in vivo
Description: Ex vivo biodistribution analysis of the tracer in these hACE2 expressing (and vehicle control) tumors recapitulated these imaging findings (FIG. 5A).

[10] = healthy volunteers average, 90 min

With CC(=O)NCC(=O)N[C@@H](CC(=O)O)C(=O)N[C@@H](Cc1ccc(O)cc1)C(=O)N[C@@H](CO)C(=O)N[C@@H](Cc1cnc[nH]1)C(=O)N[C@H]1CSSC[C@@H](C(=O)N[C@H](C(=O)N[C@@H](Cc2ccc(O)cc2)C(=O)N2CCC[C@H]2C(=O)N[C@@H](CC(=O)O)C(=O)N2CCC[C@H]2C(=O)N[C@@H](CCC(=O)O)C(=O)NCC(=O)NCC(=O)NCC(N)=O)[C@@H](C)O)NC(=O)[C@H](CCCCN)NC(=O)[C@H](Cc2c[nH]c3ccccc23)NC(=O)[C@H](Cc2c[nH]c3ccccc23)NC(=O)[C@@H]2CCCN2C(=O)[C@H](Cc2ccc(O)cc2)NC(=O)[C@H](Cc2ccc(O)cc2)NC(=O)[C@H](CCCNC(=N)N)NC(=O)[C@H](CC(C)C)NC(=O)[C@@H]2CCCN2C(=O)[C@H](CO)NC1=O [DX600] the “body weight, experimental group versus control group” value ([1]; 200 μg/200 μL on day 0, 4, 11, 18 and 25) was “no significant difference”, the “body weight, start of monitoring” value ([1]; experimental group n=5) was 26.5 ± 5.2 g and the “body weight, end of monitoring” value ([1]; experimental group n=5, 25 days) was 41.2 ± 3.1 g.
For CC(C)C[C@@H]1NC(=O)[C@@H]2CCCN2C(=O)[C@H](CO)NC(=O)[C@@H](NC(=O)[C@H](Cc2c[nH]cn2)NC(=O)[C@H](CO)NC(=O)[C@H](Cc2ccc(O)cc2)NC(=O)[C@H](CC(=O)O)NC(=O)CNC(=O)CN2CCN(CC(=O)O)CCN(CC(=O)O)CCN(CC(=O)O)CC2)CSSC[C@@H](C(=O)N[C@H](C(=O)N[C@@H](Cc2ccc(O)cc2)C(=O)N2CCC[C@H]2C(=O)N[C@@H](CC(=O)O)C(=O)N2CCC[C@H]2C(=O)N[C@@H](CCC(=O)O)C(=O)NCC(=O)NCC(=O)NCC(N)=O)[C@@H](C)O)NC(=O)[C@H](CCCCN)NC(=O)[C@H](Cc2c[nH]c3ccccc23)NC(=O)[C@H](Cc2c[nH]c3ccccc23)NC(=O)[C@@H]2CCCN2C(=O)[C@H](Cc2ccc(O)cc2)NC(=O)[C@H](Cc2ccc(O)cc2)NC(=O)[C@H](CCCNC(=N)N)NC1=O [68Ga-HZ20, metal not drawn], the “SUVmax difference right minus left, confidence interval, eyes” value [2] was −0.09 to 0.10, the “SUVmax difference right minus left, confidence interval, lungs” value [2] was −0.02 to 0.10 and the “SUVmax difference right minus left, confidence interval, renal cortex” value [2] was 3.77 to 10.90. For the same compound, the “SUVmax difference right minus left, confidence interval, testis” value [2] was −0.38 to 0.25, the “SUVmax, breast” value [2] was 2.72 and the “SUVmax, lung” value [2] was “only low SUVmax”. For the same compound, the “SUVmax, small intestine” value [2] was 0.48, the “SUVmax, testis” value [2] was 5.57 and the blood-brain barrier penetration [2] was “poor blood-brain barrier penetration”. The “SUVmax, gallbladder” value [3] was 4.32, the “SUVmax, left testis” value [3] was 8.65 and the “SUVmax, renal cortex” value [3] was 18.40. For the same compound, the “SUVmax, renal cortex, left kidney” value [3] was 11.59, the “SUVmax, renal cortex, right kidney” value [3] was 18.40 and the “SUVmax, right testis” value [3] was 8.79. For the same compound, the SUV at 1.5 h ([4]; both, gallbladder) was 2.14 ± 0.16 SUV, the SUV ([4]; both, other organs (relatively low uptake)) was < 1.5 SUV and the SUV ([4]; both, renal cortex, corpus luteum, and testis (high uptake)) was > 2.5 SUV. The SUV ([4]; female, breast, gallbladder, ovary, nasal mucosa, and esophagus (median uptake)) was 1.5 SUV, the SUV ([4]; male, conjunctiva) was 1.5 SUV and the “SUVmax, breast, young group” value ([5]; female volunteers <50 years, 90 min) was 2.21±0.25. For the same compound, the “SUVmax, breast, old group” value ([5]; female volunteers ≥50 years, 90 min) was 1.35±0.22, the “SUVmax, ovary” value ([5]; healthy females, 90 min) was 2.12±1.42 and the “SUVmax, uterus” value ([5]; healthy females, 90 min) was 2.41±0.34. The “SUVmax, testis” value ([5]; healthy males, 90 min) was 4.46±0.30, the “SUVmax, left testis” value ([5]; healthy volunteers) was 4.58±0.40 and the “SUVmax, renal cortex, left kidney” value ([5]; healthy volunteers) was 22.18±1.78. The “SUVmax, renal cortex, right kidney” value ([5]; healthy volunteers) was 25.67±1.39, the “SUVmax, right testis” value ([5]; healthy volunteers) was 4.51±0.54 and the “SUVmax, conjunctiva” value [5, 10] was 1.71±0.08. For the same compound, the “SUVmax, esophagus” value [5, 10] was 1.63±0.11, the “SUVmax, liver” value [5, 10] was 1.59±0.14 and the “SUVmax, pancreas” value [5, 10] was 1.63±0.24. The “SUVmax, rectum” value [5, 10] was 1.46±0.13, the “SUVmax, renal cortex” value [5, 10] was 25.67±1.39 and the “SUVmax, renal medulla” value [5, 10] was 18.34±1.42. For the same compound, the stability [6] was “stable within 2 h” and the acute toxicity test ([1]; mouse, in vivo) was “well tolerated”.
In the case of CC(C)C[C@@H]1NC(=O)[C@@H]2CCCN2C(=O)[C@H](CO)NC(=O)[C@@H](NC(=O)[C@H](Cc2c[nH]cn2)NC(=O)[C@H](CO)NC(=O)[C@H](Cc2ccc(O)cc2)NC(=O)[C@H](CC(=O)O)NC(=O)CNC(=O)CCC(C(=O)O)N2CCN(CC(=O)O)CCN(CC(=O)O)CC2)CSSC[C@@H](C(=O)N[C@H](C(=O)N[C@@H](Cc2ccc(O)cc2)C(=O)N2CCC[C@H]2C(=O)N[C@@H](CC(=O)O)C(=O)N2CCC[C@H]2C(=O)N[C@@H](CCC(=O)O)C(=O)NCC(=O)NCC(=O)NCC(N)=O)[C@@H](C)O)NC(=O)[C@H](CCCCN)NC(=O)[C@H](Cc2c[nH]c3ccccc23)NC(=O)[C@H](Cc2c[nH]c3ccccc23)NC(=O)[C@@H]2CCCN2C(=O)[C@H](Cc2ccc(O)cc2)NC(=O)[C@H](Cc2ccc(O)cc2)NC(=O)[C@H](CCCNC(=N)N)NC1=O (stereo partly shown) [64Cu-HZ20, metal not drawn], the “clearance from the blood pool” value [7] is reported as “rapid”, the hACE2 tumor binding [7] is reported as “Greater hACE2 tumor binding” and the kidney clearance [7] is reported as “greater kidney clearance”. For the same compound, the “signal distribution by PET” value [7] was “highest signal in the kidneys, high intensity in HEK293-hACE2 xenografts, and moderate in liver”, the “accumulation in hACE2 transgenic mice compared to wild-type strain” value [8] was “significantly higher accumulation in the heart, lung, liver, and intestine” and the “tissue retention by imaging or organ counting” value [9] was “limited or very low tissue retention”.
For CC(C)C[C@H](NC(=O)[C@@H]1CCCN1C(=O)[C@H](CO)NC(=O)[C@H](CS)NC(=O)[C@H](Cc1c[nH]cn1)NC(=O)[C@H](CO)NC(=O)[C@H](Cc1ccc(O)cc1)NC(=O)[C@H](CC(=O)O)NC(=O)CNC(=O)CCC(C(=O)O)N1CCN(CC(=O)O)CCN(CC(=O)O)CC1)C(=O)N[C@@H](CCCNC(=N)N)C(=O)N[C@@H](Cc1ccc(O)cc1)C(=O)N[C@@H](Cc1ccc(O)cc1)C(=O)N1CCC[C@H]1C(=O)N[C@@H](Cc1c[nH]c2ccccc12)C(=O)N[C@@H](Cc1c[nH]c2ccccc12)C(=O)N[C@@H](CCCCN)C(=O)N[C@@H](CS)C(=O)N[C@H](C(=O)N[C@@H](Cc1ccc(O)cc1)C(=O)N1CCC[C@H]1C(=O)N[C@@H](CC(=O)O)C(=O)N1CCC[C@H]1C(=O)N[C@@H](CCC(=O)O)C(=O)NCC(=O)NCC(=O)NCC(N)=O)[C@@H](C)O (stereo partly shown) [64Cu-HZ-19, metal not drawn], the “clearance from the blood pool” value [7] was “rapid” and the liver retention [7] was “increased liver retention”.
